In the supplement of paper PMC12042874 one finds amyloid nucleation score data, which are given here for 140 substances.

± gives the uncertainty stated by the source.

The data set is described as follows: amyloid nucleation score (Sup35N fusion, yeast selection) (log enrichment); library NNK2; higher = more nucleation; inactive = no reads after selection. The method, boiled down:
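The nucleation score is a DiMSum log enrichment of output over input reads, centred on the mode score of non-aggregating sequences. Sequences under 100 input reads were excluded, and reads came from Illumina sequencing of plasmid inserts. Psi-negative yeast expressing Sup35N fused to peptides of 20 random codons were induced with 100 μM copper sulfate for 24 hours and grown 7 days at 30°C on medium lacking adenine and uracil. Random libraries had three technical output replicates.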

TNLCVPFVYEHFGCYGYN yielded an amyloid nucleation score of 3.83 ± 0.12. For the substance YMFDFYFVLYESKYAWINPK, the amyloid nucleation score entry was “inactive”.

Consider ALNLIV, for which the amyloid nucleation score was -0.572 ± 0.32. With LIPLIVLGGTDSFKELYGYE the figure was -0.624 ± 0.61. With STLSWSFIYTSIC the figure was 2.24 ± 0.1; with CCVYAASLLPFQLVAALLTD, 0.91 ± 0.34; with HCGCMEQA, 0.486 ± 0.8. For the substance GVRKFLHPTTGPYMYTRCWA, the amyloid nucleation score worked out at 0.44 ± 0.45. The value for HSLCLVVLGFML was 5.428 ± 0.04; that for YFRNDNGLWEINSCRILFIV was “inactive”; that for NLDEVFMFTSTHLVIPLESK was -1.6 ± 0.75. The value for RKVLLVNVLGSDEDTHLTRV was -0.973 ± 0.76; that for GFVQDAEYRISRSCLRCILM was 4.03 ± 0.089. The value for KYVGWQYLSSCILGVFPLAG was 0.151 ± 0.32; that for YVTPKDDSDAVWGLTLMEMS was 0.292 ± 0.39; that for STAWKCEVYRRV was 1.14 ± 0.33. The substance EKGVGL registered an amyloid nucleation score of -0.449 ± 0.5.

NQLRVLMTIFWPGMLNTPAV came in with an amyloid nucleation score of 0.622 ± 0.31.

As for HMSGLNGLGCLGTCLWLCSS, the amyloid nucleation score result is “inactive”. With IYIWCARHEILWYRNGWGRG the figure was 0.2 ± 0.36; with PTMFNFKIYQIVRVGLPIHL, -1.53 ± 0.76; with SAPRNNVATLTEHLERLVLR, -0.767 ± 0.76.

Substance IFVALEIGVVNVDQVAKDVC returned an amyloid nucleation score of 6.75 ± 0.069. With LNYLCVHTLIACVSWVPVSA the figure was 2.36 ± 0.23; with VMFEFNLAGSDSSDKAAMVT, 0.014 ± 0.49; with LEVYVLFTVTYAVMRMNMDG, 0.302 ± 0.56. The value for IDLFVCAESMDRRGVTIPRS was 0.041 ± 0.35; that for CLFSTCTRCCLSNGFNAITR was “inactive”; that for MLVPFRVESMSGTRTCKVTV was 4.96 ± 0.08.

As to TFLQPTLEVSLL, the amyloid nucleation score is -0.612 ± 0.48. With RLMHGRIRPLNSKWLTGLG the figure was 1.11 ± 0.34; with ILEFKINPG, -1.05 ± 0.43. With WWNITTEAPIFLIFCFTRQG the figure was 4.8 ± 0.068. The substance WMYTSRPNSSQTIRGWRATY showed an amyloid nucleation score of -0.046 ± 0.39. The value for PCGSCMSQNKSIG was 0.167 ± 0.31; that for SLAFYTTYNNKILGNS was 3.08 ± 0.069. For YHCCFRSKAGFQESQDITIR, the amyloid nucleation score is -0.18 ± 0.24.

As for LSPVVRSMKDVLQCESVDDR, the amyloid nucleation score was 0.191 ± 0.5. The value for RSAYNY was -0.844 ± 0.4; that for ASGCLASEDKMGVYLWVV was 0.171 ± 0.65. In the case of IHRPTRFYTFSSSTSEQA, the amyloid nucleation score is 0.351 ± 0.64. The value for AFCKGYIARMRSINAGVGAG was -0.144 ± 0.36; that for MNVYYHVGWNGCYSGVWRAE was 4.818 ± 0.043; that for SSASLGVAV was -0.517 ± 0.76. VMLGHYTVLFGVKVRECREG: the amyloid nucleation score was 1.7 ± 0.19. The value for LSDIRWMSCGGVL was -0.602 ± 1.1; that for YHIWRYHATSSHTFARFSSV was 1.62 ± 0.51; that for CSSNCFYEAFVLGYKTHARE was 0.295 ± 1. With GFQFLIGLSHLNGYLITPRY the figure was 3.42 ± 0.059. The value for HLDPRAPSVVWTMADGEEDA was 0.837 ± 0.22; that for PHRKV was -0.536 ± 0.76; that for TDSYPVLDLHPGSYRVH was 0.397 ± 0.39. In turn, FGLVHRIPRFVLWILSLGSG displayed an amyloid nucleation score of -0.012 ± 1.1. Take VSRDLEVH: the amyloid nucleation score was -0.001 ± 0.31. With SDAVSSILSFYRVPRAVGPE the entry was “inactive”. The value for SWALKRAPVGNR was “inactive”; that for VLNRGGETAYTSMFDVYYI was -0.097 ± 0.63. The value for FGMFM was -0.228 ± 0.32; that for MNYTT was -0.242 ± 0.54; that for TIGEVYGYLRSWIYWGSEST was 0.154 ± 0.46. In the case of NVLDVGVGRTFVFK, the amyloid nucleation score was -0.291 ± 0.79. The value for SLEGKSWGCSTSNSLKGDKG was -0.06 ± 1.1; that for LLSFLMRSRRFLSTVKY was -0.931 ± 0.78. With WRCDLSNPTFAMYVDAVWAS the figure was 1.16 ± 0.18. FGISSNATRDWRLFDHRAVG yielded an amyloid nucleation score of 0.637 ± 0.47. The value for PVGWSNRFRTMLPDS was 0.861 ± 0.48. The value for EILYFSTAFYLSTWEDTIFT was “inactive”; that for LLKLNGILVCLDRGVMPHDS was 2.57 ± 0.092. With PLITDFLAGMLSPENVSVPQ the figure was 0.883 ± 0.51; with LDNYCFHAASYSQHNSSTGP, 0.804 ± 0.46.

Consider TDFCSHKTWLSAVGISV, for which the amyloid nucleation score came out at 0.037 ± 0.23.

In the case of VTKSYITRSVFSVGNYSETS, the amyloid nucleation score was -0.226 ± 1.1. The value for WMGIWYGCVWVFGMVGANNR was 2.2 ± 0.063; that for TRDILGRGVDQFFIVSYRFN was -1.11 ± 0.45. The value for FIAGLS was -0.734 ± 0.76; that for WTTMRLFLDFMYTLDRVGST was -0.291 ± 1.1. With WDNDQHIQRNLY the entry was “inactive”. In turn, PMDEWHSFPLQNKLRVIGCG registered an amyloid nucleation score of 0.115 ± 0.23. Take LLLGINSCQEQPKGSFEERH: the amyloid nucleation score was -0.91 ± 1.1. Regarding HCGYRVIELDLSRLASRSLR, the amyloid nucleation score is 0.195 ± 0.32. The value for FHIQTRCMCGGMRYIFYVWY was 0.432 ± 0.8. In turn, SKIVCDMFLGHEDLPCTRLF showed an amyloid nucleation score of 0.057 ± 1.1. The value for EGLIDCCIH was “inactive”; that for HGRRQGFAVTVGN was 0.355 ± 0.45.

LIVCWGMWFLQW yielded an amyloid nucleation score of -1.74 ± 1.1. The value for RSHAT was 0.579 ± 0.33.

In the case of ETPLTGLRNPSLNQCLMELM, the amyloid nucleation score was found to be 0.232 ± 0.5. On to SRFGGVSTHYLARSFVDVTM, for which the amyloid nucleation score turned out to be 0.039 ± 0.44. The value for RVSTVFSLKTRRCEFLFQCV was 0.24 ± 0.35; that for QKNTSQCFVLSW was 0.129 ± 0.49. With TWDVNVLHVYLSMSSTTLHF the figure was -0.46 ± 0.45; with ICSPFVFGFCGTNFRRVLHR, 6.978 ± 0.033; with IDIEMIYERKPVGRIFSDT, -1.25 ± 0.42.

MDGVMRTRFFLDSDVFYSSH registered an amyloid nucleation score of 3.69 ± 0.046.

VFTCGVVPYPYKNTLKYKCF showed an amyloid nucleation score of -0.319 ± 0.4. With FLGVFSYASSMIISVKRERS the figure was 4.1 ± 0.095. With ACYIR the figure was 1.02 ± 0.17. With LDYLGETNLLVRWHLAVTAS the figure was 0.626 ± 0.16; with TILKDSTPAVYNVRMRFKAW, “inactive”; with INQKDRRGNPYY, -0.042 ± 0.79. TDNNNVYYVYSLQVIPTVSD: the amyloid nucleation score is -0.496 ± 0.32. The value for MIWPCMVP was -0.237 ± 1; that for PVKTNFCENINYFIVPGFAL was “inactive”; that for TCGLFTA was 1.2 ± 0.44. With LASYLRFSISSVIFNTRAIL the figure was -0.315 ± 0.54; with CSMVNDLSFNIEARMQSWNS, 0.028 ± 0.79. TKLEYNTE came in with an amyloid nucleation score of 0.118 ± 0.77. With WRASK the figure was 3.23 ± 0.057. In the case of RVTSIVYLKLICFMGVSNLF, the amyloid nucleation score result was “inactive”. With NVSRGTKIDNMDRVYFYPEA the figure was -0.055 ± 0.46; with VGLVMHGIVLCLMLSHMSWR, 0.354 ± 0.41. The value for IMSFKFENC was 1.78 ± 0.26; that for LHIMVFQYLKWHTAI was -0.07 ± 0.49. With GWFGARRGMSIYRVHNWFVF the figure was 5.738 ± 0.048.

LLYCCLRWMDSIQGLRPAFE had an amyloid nucleation score of 1.1 ± 0.61. The value for YIRCYRNV was -0.536 ± 0.33.

SMPMGGERIWVIYCRFQVLS returned an amyloid nucleation score of -0.585 ± 0.35. With NSKTDSVHYYIDVLSPTHIF the figure was -1.09 ± 0.78. The substance GRSFFMF showed an amyloid nucleation score of 2.5 ± 0.091. The value for GVLGTLF was -1.13 ± 0.76; that for MKKFLGWRYELNCWVLYNSG was -1.16 ± 0.76.

The substance TYHYLMYLLVRRNMGDVNGA gave an amyloid nucleation score of 3.49 ± 0.097. With MKKWWPVICFGWSQVSFRVE the figure was 3.21 ± 0.16; with FTALSIGLIIVMLRLYRRCF, -0.733 ± 0.64; with TMHCSSLPQTSLVGTNHNAD, -0.327 ± 0.28. The value for TVFNR was 0.236 ± 0.3; that for TPMFHILLYFLNWCYCILVA was 0.165 ± 1; that for GVLQTARRFPVPEGN was 3.71 ± 0.12. The value for TIGTVMNSLSHFLRPAR was 1.15 ± 0.21; that for RRRCYHTVSKFRWNIQSAVT was -0.337 ± 1. As for FMNANRRVKKGQRVKRWTYS, the amyloid nucleation score is 0.045 ± 0.79. SSQFR yielded an amyloid nucleation score of 0.705 ± 0.44. For the substance HKVQLVWPFVYLVEVQRRSG, the amyloid nucleation score turned out to be 2.85 ± 0.089. With QCFDFTD the figure was 1.1 ± 0.38; with WSMFLLRMAPMRMLTTINFV, -0.504 ± 0.33; with KDFVG, 2.62 ± 0.11.

The substance GWASHGDNDSAMTGGSVWPG had an amyloid nucleation score of 0.587 ± 0.62. With GYLVYFLCINRLACCSYLAT the figure was 7.981 ± 0.065; with IHYFRTWVYHYGLRGFGIIR, 0.918 ± 0.58; with LRMSVVQLSVRESLLDNHDY, 1.78 ± 0.25.
